Results taken from patent US20240424062A1 (MEDERIS DIABETES, published 2024).

T1: GLP-1 receptor (murine cell line) (murine, UniProt O35659 22-463)
T1 sequence (looked up): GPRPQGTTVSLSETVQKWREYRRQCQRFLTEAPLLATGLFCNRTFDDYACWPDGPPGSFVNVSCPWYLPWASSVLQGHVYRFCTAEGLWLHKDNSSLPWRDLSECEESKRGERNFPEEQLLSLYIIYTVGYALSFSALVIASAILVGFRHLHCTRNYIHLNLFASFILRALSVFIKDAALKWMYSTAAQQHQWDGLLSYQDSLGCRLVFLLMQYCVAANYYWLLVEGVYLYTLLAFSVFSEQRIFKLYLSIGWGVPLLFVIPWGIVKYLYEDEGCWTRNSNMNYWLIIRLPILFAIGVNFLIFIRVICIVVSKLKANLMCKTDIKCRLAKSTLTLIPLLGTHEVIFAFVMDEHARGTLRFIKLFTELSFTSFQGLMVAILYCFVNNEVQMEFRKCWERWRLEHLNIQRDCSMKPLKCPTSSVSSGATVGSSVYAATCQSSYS

B1: EU-A992 (peptide)
peptide: HXQGTFTSDYSKYLDXQAAXEFIXWLLQT
modifications: not fully specified; Aib at 2; Glu*16 and Lys*20 cyclized through their side chains to a lactam; Lys(N-omega(1-octyl beta-D-glucuronyl)) at 24; C-terminal amide (NH2)
B2: EU-A391 (peptide)
peptide: HXQGTXTSDYSKYLDXX
modifications: not fully specified; 1-dodecyl alkyl glycoside surfactant on a linker residue (position not given)

Tests used:
Test in all cases: cell-based or functional assay
[1] = target: glucagon receptor (human, cloned into CHO cells) (human, UniProt P47871 26-477)
[2] = target: GLP-1 receptor (human, cloned into CHO cells) (human, UniProt P43220 24-463)
[3] = target: T1, GLP-1 receptor (murine cell line)

Chain of glucagon receptor (human, cloned into CHO cells) (P47871 26-477): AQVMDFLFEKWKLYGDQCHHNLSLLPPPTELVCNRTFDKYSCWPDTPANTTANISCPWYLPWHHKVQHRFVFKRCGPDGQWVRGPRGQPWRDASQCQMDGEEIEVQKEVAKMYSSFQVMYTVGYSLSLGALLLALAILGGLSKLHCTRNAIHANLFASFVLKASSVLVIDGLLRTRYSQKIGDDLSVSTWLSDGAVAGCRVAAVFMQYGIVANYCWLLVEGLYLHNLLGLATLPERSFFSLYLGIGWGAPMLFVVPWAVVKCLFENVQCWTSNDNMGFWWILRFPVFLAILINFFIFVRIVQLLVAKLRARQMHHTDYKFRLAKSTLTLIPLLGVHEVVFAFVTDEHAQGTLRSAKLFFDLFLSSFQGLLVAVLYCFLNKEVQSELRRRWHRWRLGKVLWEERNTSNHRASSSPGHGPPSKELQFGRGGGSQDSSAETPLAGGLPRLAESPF

Binder | EC50 cAMP (DiscoveRx) [1] [nM] | EC50 cAMP (DiscoveRx) [2] [nM] | EC50, cAMP stimulation in cells (Cerep) [3] [nM]
B1 | 0.019 | 0.009 | –
B2 | – | – | 420
